{
  "source": "IntAct's records for PubMed 17210637",
  "molecular_target": "merl_human NF2 (UniProt P35240)",
  "sequence (P35240 whole entry)": "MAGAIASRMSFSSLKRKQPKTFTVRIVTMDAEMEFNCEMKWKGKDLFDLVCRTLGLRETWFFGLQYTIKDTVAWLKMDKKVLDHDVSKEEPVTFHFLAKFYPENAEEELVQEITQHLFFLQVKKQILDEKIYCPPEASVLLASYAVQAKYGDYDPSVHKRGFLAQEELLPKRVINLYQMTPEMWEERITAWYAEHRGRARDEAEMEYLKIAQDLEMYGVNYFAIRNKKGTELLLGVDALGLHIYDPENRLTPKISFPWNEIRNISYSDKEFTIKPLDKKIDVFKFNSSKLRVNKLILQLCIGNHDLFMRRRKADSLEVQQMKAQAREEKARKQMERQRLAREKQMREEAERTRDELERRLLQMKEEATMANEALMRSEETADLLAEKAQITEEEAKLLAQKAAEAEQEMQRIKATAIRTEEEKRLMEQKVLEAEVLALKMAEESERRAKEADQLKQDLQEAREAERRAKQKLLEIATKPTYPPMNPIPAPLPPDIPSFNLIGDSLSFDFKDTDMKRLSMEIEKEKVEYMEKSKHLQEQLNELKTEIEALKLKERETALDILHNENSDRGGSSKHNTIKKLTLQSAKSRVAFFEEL",
  "data": [
    {"substance": "GTP-binding protein 4 (Homo sapiens) (from UniProt Q9BZE4) R394A;K395A", "values": [
      {"measurement": "effect of a mutation on the interaction", "result": "decreasing interaction"}
    ]}
  ]
}
